In patent US20240209022A1, “NOVEL PEPTIDE HAVING ANTI-INFLAMMATORY AND TISSUE REGENERATIVE ACTIONS” (KOREA RESEARCH INSTITUTE OF BIOSCIENCE AND BIOTECHNOLOGY, priority 2020, published 2024):

Tests used:
Assay type in all cases: in vivo, C57BL/6J mice
[1] = tested on: full-thickness skin defect wound-induced model; test: Full-thickness skin defect wound-induced model (tail); conditions: 120 μM, 25 μL applied once a day for 28 days; vs vehicle
Protocol: In order to confirm the tissue regeneration efficacy of the novel peptides, an experiment was conducted using a wound-induced model induced by a full-thickness skin defect of mouse's tail. For a full-thickness skin defect wound-induced model, 9-week-old specific pathogen free (SPF) male C57BL/6J mice were anesthetized, and then in order to indicate full-thickness wounding, a full-thickness wound with a size of 10 mm×3 mm was made on the dorsal part of the mouse's tail, about 1.0 cm away from the base of the mouse's tail, using an aseptic dissection mass No. 10. Bleeding was stopped by compressing the wound, and the wound was covered with a film spray dressing (Cavilon, 3M). For 28 days from the day of wound induction, Amuc_1409 or PEP001 to PEP013 were each dissolved in vehicle (50% ethanol, 20% propylene glycol, 30% water) at a concentration of 120 μM and then applied to the wound site by 25 μL per animal once a day. For the control group, the same volume of vehicle (50% ethanol, 20% propylene glycol, 30% water) was applied to the wound site. The test was terminated on day 29 after wound induction. In order to observe the wound healing effect, the wound sites of animals in each test group were individually photographed using a digital camera at a constant height from the wound for 28 days at 7-day intervals from the day of wound induction, and the wound area was measured using the Image J Soft program.

[2] = tested on: depression and anxiety model; test: LPS-induced depression and anxiety model (TST, FST, EPM); conditions: vs PBS buffer group
Protocol: By Daehan Biolink, 7-week-old male C57BL/6J mice weighing 20-22 g were supplied, and the animals were sufficiently supplied with solid feed and water until the day of the experiment, acclimatized for 1 week while maintaining an environment with a temperature of 22° C. 2° C., a humidity of 55%±15%, and a 12-hour light/dark cycle, and then used in the experiment. From 3 days before inducing depression and anxiety, the peptide was dissolved in PBS buffer and orally administered to the mice by 150 μL per animal at the same time once a day. Amuc_1409 or PEP001, PEP002, PEP003, PEP004, or PEP005 was dissolved in PBS buffer at a concentration of 6.7 μM and then used, and novel tetrapeptides PEP006, PEP007, PEP008, PEP009, and PEP010 and novel tripeptides PEP011, PEP012, and PEP013 were each dissolved in PBS buffer at a concentration of 0.2 μg/150 μL and then used. On the 3rd day of peptide administration, lipopolysaccharide (LPS) dissolved in PBS buffer was intraperitoneally injected at a concentration of 0.8 mg/kg to induce depression and anxiety. Tail suspension test (TST) and forced swim test (FST) were conducted to analyze the effect on depression. As the TST, a tail suspension device was installed in an open white acrylic box of 20 cm×25 cm×30 cm size, and the mouse was suspended upside down at a height where the mouse's tail would not touch the floor, and then the time for which the mouse maintained immobility while observing in the same environment was measured for 6 minutes. […] Water at around 25° C. was filled in a transparent acrylic cylinder (45 cm depth×18 cm diameter) up to 30 cm from the bottom, the mouse was exposed to water, and the time for which the mouse maintained immobility while swimming was measured for 6 minutes. […] An elevated plus-maze (EPM) test was performed to analyze the effect on anxiety level. The EPM device consists of two open arms (50 cm×10 cm) and two […] (50 cm×10 cm) at a height of 50 cm from the floor, and the arms are connected by a central area of 10 cm×10 cm. At the start of the experiment, the mouse was placed in the center of the maze and the time for which the mouse stayed in the open arm was measured for a total of 5 minutes using a video camera, and the percentage of time spent in the open arm was calculated and recorded [(time spent in open arm/time spent in open and closed arms)×100]. In addition, in order to examine the anti-inflammatory activity according to the administration of Amuc_1409 and PEP001, PEP002, PEP003, PEP004, and PEP005 in an animal model of depression and anxiety, the expression of Ifnγ and Il-10 mRNA, which are major inflammatory genes related to depression, in brain tissue (hippocampus) was examined.

[3] = tested on: non-alcoholic hepatitis model; test: High-fat diet-induced non-alcoholic steatohepatitis model, liver gene expression; conditions: RT-qPCR; vs PBS buffer group
Protocol: A non-alcoholic hepatitis model was induced by feeding a high-fat diet to 8-week-old SPF male C57BL/6J mice. The experiment for groups administered with Amuc_1409 and PEP001 to PEP005 was performed as follows. Mice fed a high-fat diet for 45 weeks were fed a high-fat diet for an additional 3 weeks, and Amuc_1409 was dissolved in PBS buffer at a concentration of 2.4 μM and then orally administered to the mice by 150 μL per animal at the same time once a day until the end of the experiment, or mice fed a high-fat diet for 8 weeks were fed a high-fat diet for an additional 3 weeks, and PEP001, PEP002, PEP003, PEP004, or PEP005 was dissolved in PBS buffer at a concentration of 2.4 μM and then orally administered to the mice by 150 μL per animal at the same time once a day until the end of the experiment. To the control group, PBS buffer was orally administered in the same manner. The experiment for groups administered with PEP006 to PEP013 was performed as follows. The non-alcoholic hepatitis model was induced by ad libitum feeding of a high-fat diet for 32, 50, or 53 weeks. Mice fed a high-fat diet for 50 weeks were fed a high-fat diet for an additional 3 weeks, and a novel tetrapeptide PEP006, PEP007, PEP008, PEP009, or PEP010 was dissolved in PBS buffer at a concentration of 0.2 μg/150 μL and then orally administered to the mice by 150 μL per animal at the same time until the end of the test, and mice fed a high-fat diet for 53 weeks were fed a high-fat diet for an additional 3 weeks, and a novel […] PEP011, PEP012, or PEP013 was dissolved in PBS buffer at a concentration of 0.2 μg/150 μL and then orally administered to the mice by 150 μL per animal at the same time until the end of the test. To the control group, PBS buffer was orally administered in the same manner. At the end of the experiment, a part of the liver harvested was homogenized with Trizol to extract RNA. Reverse transcriptase was added to the obtained RNA and reacted to synthesize cDNA, and SYBR Green and primers were added to perform quantitative real-time PCR (RT-qPCR), and then the expression levels of genes such as Tnfα, Il-1β, Il-10, and Il-1rn were quantified.

B1: Amuc_1409: SEQ ID NO: 15, functional fragment obtained by eliminating the leader sequence from SEQ ID NO: 14; protein derived from Akkermansia muciniphila (protein)
chain: IPESSVPAAAVSSIKGAYPNAGPIEWDSEMHGMERIYEAEFRINGFQFDVKIAPDGKIVRIKEEIAASSLPEAVRASVLKRYPGCRIKEAEKITEGELVRYKVEVADSRDDYDVLIAPDGNILHVDR
modifications: Amuc_1409_fragment
notes: protein derived from Akkermansia muciniphila
wound area [1]: significantly decreased
wound size (visually confirmed) [1]: rapidly decreased
Ifnγ mRNA expression in brain tissue (hippocampus) ([2]; RT-qPCR): decreased
Il-10 mRNA expression in brain tissue (hippocampus) ([2]; RT-qPCR): increased
immobility time in forced swim test ([2]; oral, LPS-induced): significantly decreased
immobility time in tail suspension test ([2]; oral, LPS-induced): significantly decreased
time spent in the open arm, elevated plus-maze test [2]: increased
11-10, which is an anti-inflammatory index (liver gene expression) [3]: significantly increased
Il-1p gene expression in liver tissue [3]: significantly decreased
Il-1rn, additional anti-inflammatory index (liver gene expression) [3]: significantly increased
